Experimental data reported in US20100041610A1.

Molecular target: Class A TC protein XptA2wi (Xenorhabdus nematophilus xwi)
Assay: cell-based or functional assay

TcdB2+TccC3 complex (non fused)
killing/stunting activity against corn earworm larvae, XptA2 held constant at 250 ng/cm^2: 7.8 ng/cm^2
